The results in this text go back to publication PMC9159282, “Structural basis of human LRG1 recognition by Magacizumab, a humanized monoclonal antibody with therapeutic potential” (Acta Crystallographica. Section D, Structural Biology, 2022).

This experiment addresses T1, 15-amino-acid peptide corresponding to the epitope in LRG1 (human).
T1 construct: leucine-rich alpha-2-glycoprotein 1 (LRG1), human; Gln5Pep is Gln225 of LRG1
T1 chain: GNKLQVLGKDLLLPQ
The experiment can be described thus: crystal structure; co-crystallization at MagaFab:peptide molar ratios of 1:2 and 1:5, MagaFab 12 mg/ml, 0.2 M NaCl, 0.1 M bis-Tris pH 5.5, 25%(w/v) PEG 3350; two Fab and two peptide molecules per asymmetric unit. To be noted: both partners purified.

B1: Magacizumab Fab fragment (Fab, V domains shown)
VH: QVQLVQSGAEVKKPGSSVKVSCKASGYTFSGYWMNWVRQAPGQGLEWIGQIYPGDGDTNYNGKFKGRVTITADKSTSTAYMELSSLRSEDTAVYYCARSITTVVLDYWGQGTTVTVSS
VL: DIVLTQSPDSLAVSLGERATISCRASQSVSTSGYSFMHWYQQKPGQPPKLLIKYASNLESGVPARFSGSGSGTDFTLTISSLQPEDFATYYCQHSWEMPLTFGQGTKLEIK
notes: heavy (VH) chain of MagaFab is chain B (second copy: chain D) of the deposited structure PDB 7q4q; light (VL) chain of MagaFab is chain A (second copy: chain C) of the deposited structure PDB 7q4q; Fab of a humanized IgG4 derived from the mouse monoclonal antibody 15C4; Observed mass of the Fab 47 461 Da, computed 47 412 Da; also called MagaFab; source: Magacizumab: CHO cell-based expression …
With B1, the binding result was “binds”.
